PMC7596504 (2020)

Molecular target: T1, MORC4 ATPaseCW cassette (aa 29-486) (human, UniProt Q8TE76 29-486)
T1 chain: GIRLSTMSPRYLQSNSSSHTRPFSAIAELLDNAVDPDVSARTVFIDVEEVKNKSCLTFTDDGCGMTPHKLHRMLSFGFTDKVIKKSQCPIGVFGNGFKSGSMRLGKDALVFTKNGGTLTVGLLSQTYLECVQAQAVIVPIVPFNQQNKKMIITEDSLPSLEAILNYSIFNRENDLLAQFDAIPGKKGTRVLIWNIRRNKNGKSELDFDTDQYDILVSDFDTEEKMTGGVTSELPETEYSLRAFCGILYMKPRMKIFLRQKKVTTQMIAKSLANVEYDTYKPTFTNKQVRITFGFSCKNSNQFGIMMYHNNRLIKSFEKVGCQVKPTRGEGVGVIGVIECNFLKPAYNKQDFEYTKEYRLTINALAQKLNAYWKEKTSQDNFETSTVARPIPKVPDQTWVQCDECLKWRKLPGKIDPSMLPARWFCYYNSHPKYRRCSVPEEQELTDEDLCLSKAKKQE

ARTKQTARKSTG [unmodified histone H3 peptide (aa 1-12 of H3)] gave a Kd of 12 µM.
